Results from patent publication US20230184768A1 (MESO SCALE TECHNOLOGIES, published 2023).

Biological target: T1, labeled ACE2 (angiotensin-converting enzyme 2) (human, UniProt Q9BYF1 18-740)
T1 construct: also called ACE2 detection reagent
Test: labeled ACE2 on immobilized Mixed Panel, ECL

T1 sequence (Q9BYF1 18-740 limits assumed): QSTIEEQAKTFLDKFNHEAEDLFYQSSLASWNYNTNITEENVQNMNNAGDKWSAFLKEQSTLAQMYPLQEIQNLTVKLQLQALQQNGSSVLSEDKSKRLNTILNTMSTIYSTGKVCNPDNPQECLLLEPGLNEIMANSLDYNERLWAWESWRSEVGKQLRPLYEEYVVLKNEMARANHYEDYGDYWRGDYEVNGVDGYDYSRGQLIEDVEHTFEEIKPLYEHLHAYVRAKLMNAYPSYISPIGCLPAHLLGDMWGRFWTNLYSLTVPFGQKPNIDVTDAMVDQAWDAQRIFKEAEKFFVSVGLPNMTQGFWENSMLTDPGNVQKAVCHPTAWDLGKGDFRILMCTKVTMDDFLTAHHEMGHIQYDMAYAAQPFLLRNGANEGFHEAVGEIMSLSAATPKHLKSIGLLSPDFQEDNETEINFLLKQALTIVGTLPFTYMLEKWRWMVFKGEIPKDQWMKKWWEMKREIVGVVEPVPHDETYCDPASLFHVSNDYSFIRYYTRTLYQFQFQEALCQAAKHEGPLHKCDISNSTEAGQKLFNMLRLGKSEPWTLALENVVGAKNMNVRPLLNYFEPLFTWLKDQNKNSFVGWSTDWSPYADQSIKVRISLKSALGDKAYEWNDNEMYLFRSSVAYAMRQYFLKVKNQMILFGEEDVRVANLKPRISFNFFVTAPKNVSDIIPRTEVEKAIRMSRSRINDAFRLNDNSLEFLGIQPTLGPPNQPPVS

B1: HCoV-OC43 S protein (other)
chain: AVIGDLKCTSDNINDKDTGPPPISTDTVDVTNGLGTYYVLDRVYLNTTLFLNGYYPTSGSTYRNMALKGSVLLSRLWFKPPFLSDFINGIFAKVKNTKVIKDRVMYSEFPAITIGSTFVNTSYSVVVQPRTINSTQDGDNKLQGLLEVSVCQYNMCEYPQTICHPNLGNHRKELWHLDTGVVSCLYKRNFTYDVNADYLYFHFYQEGGTFYAYFTDTGVVTKFLFNVYLGMALSHYYVMPLTCNSKLTLEYWVTPLTSRQYLLAFNQDGIIFNAEDCMSDFMSEIKCKTQSIAPPTGVYELNGYTVQPIADVYRRKPNLPNCNIEAWLNDKSVPSPLNWERKTFSNCNFNMSSLMSFIQADSFTCNNIDAAKIYGMCFSSITIDKFAIPNGRKVDLQLGNLGYLQSFNYRIDTTATSCQLYYNLPAANVSVSRFNPSTWNKRFGFIEDSVFKPRPAGVLTNHDVVYAQHCFKAPKNFCPCKLNGSCVGSGPGKNNGIGTCPAGTNYLTCDNLCTPDPITFTGTYKCPQTKSLVGIGEHCSGLAVKSDYCGGNSCTCRPQAFLGWSADSCLQGDKCNIFANFILHDVNSGLTCSTDLQKANTDIILGVCVNYDLYGILGQGIFVEVNATYYNSWQNLLYDSNGNLYGFRDYIINRTFMIRSCYSGRVSAAFHANSSEPALLFRNIKCNYVFNNSLTRQLQPINYFDSYLGCVVNAYNSTAISVQTCDLTVGSGYCVDYSKNRRSRGAITTGYRFTNFEPFTVNSVNDSLEPVGGLYEIQIPSEFTIGNMVEFIQTSSPKVTIDCAAFVCGDYAACKSQLVEYGSFCDNINAILTEVNELLDTTQLQVANSLMNGVTLSTKLKDGVNFNVDDINFSPVLGCLGSECSKASSRSAIEDLLFDKVKLSDVGFVEAYNNCTGGAEIRDLICVQSYKGIKVLPPLLSENQISGYTLAATSASLFPPWTAAAGVPFYLNVQYRINGLGVTMDVLSQNQKLIANAFNNALYAIQEGFDATNSALVKIQAVVNANAEALNNLLQQLSNRFGAISASLQEILSRLDALEAEAQIDRLINGRLTALNAYVSQQLSDSTLVKFSAAQAMEKVNECVKSQSSRINFCGNGNHIISLVQNAPYGLYFIHFSYVPTKYVTARVSPGLCIAGDRGIAPKSGYFVNVNNTWMYTGSGYYYPEPITENNVVVMSTCAVNYTKAPYVMLNTSIPNLPDFKEELDQWFKNQTSVAPDLSLDYINVTFLDLQVEMNRLQEAIKVLNQSYINLKDIGTYE
notes: also called HCoV-OC43 spike protein
B1: no binding.
